One experiment addresses T1, lYibK (linear PaYibK_lo) (Pseudomonas aeruginosa, UniProt Q9HU57).
T1 construct: gene trmL; recombinant in E. coli ER2566 from pBHRSF260, N-terminal His-SUMO fusion cut by Ulp1; homodimer
T1 sequence (Q9HU57 1-153): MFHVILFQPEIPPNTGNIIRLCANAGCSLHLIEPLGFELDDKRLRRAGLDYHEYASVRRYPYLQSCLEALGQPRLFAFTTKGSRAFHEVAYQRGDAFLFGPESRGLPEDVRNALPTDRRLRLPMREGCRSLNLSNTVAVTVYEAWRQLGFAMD
The experiment is described as follows: isothermal titration calorimetry. The class given is binding. For orientation: In ITC the heat of successive injections is recorded.

For experiment [1], the target named is T2, cYibK (cYibK_lo, backbone-cyclized PaYibK) (Pseudomonas aeruginosa, UniProt Q9HU57).
T2 construct: gene trmL; recombinant in E. coli ER2566 from pITRSF3D (SUMO fusion cut, LPETG-H6), N and C termini joined by S. aureus sortase A through a nine-residue linker, His-tag removed by ligation; backbone-cyclized, homodimer
Nature of the experiment: isothermal titration calorimetry. The class given is binding.

Experiment [2] concerns the target backbone-cyclized YibK from Pseudomonas aeruginosa with a nine-residue linker (sortase A ligation of PaYibK_lo) (Pseudomonas aeruginosa). Nature of the experiment: SEC-SAXS; native conditions: buffer A (50 mM Tris-HCl pH 7.4, 0.5 mM EDTA, 5 mM DTT) without urea, 2% glycerol; protein at 10 mg/ml; online size-exclusion column (Bio SEC-3). (In gel filtration, larger molecules generally elute earlier.)

Experiment [3] addresses linear form of YibK from Pseudomonas aeruginosa with the identical sequence as PaYibK_lo / cYibK (Pseudomonas aeruginosa). The experiment is described as above.
The target in experiment [4] is wild-type YibK from Pseudomonas aeruginosa in its linear form (Pseudomonas aeruginosa). The experiment is described as follows: crystal structure; PaYibK: 0.15 M ammonium sulfate, 0.9 M lithium sulfate, 0.1 M sodium citrate pH 5.6, 2.0 Å; cYibK: 0.3 M ammonium sulfate, 0.1 M MES pH 6.0, 25% PEG MME 5,000, 2.2 Å.

Usually Kd stands for the free concentration of one partner at which half of the binding sites on the other are occupied at equilibrium, for simple one-to-one binding. A lower Kd goes with higher affinity. Take `Nc1ncnc2c1ncn2[C@@H]1O[C@H](CSCC[C@H](N)C(=O)O)[C@@H](O)[C@H]1O` [S-adenosyl-L-homocysteine]: the values for the Kd (at lYibK (linear PaYibK_lo); in experiment [1]) were 8.8 ± 0.01 µM and 8.93 ± 0.03 µM, respectively.

In general, stoichiometry N refers to a count of units in the complex or per binding partner. For “backbone-cyclized YibK from Pseudomonas aeruginosa with a nine-residue linker (sortase A ligation of PaYibK_lo) (enzyme)”, the stoichiometry N in experiment [2] came out at 2.

The molecule “linear form of YibK from Pseudomonas aeruginosa with the identical sequence as PaYibK_lo / cYibK (enzyme)” returned a stoichiometry N in experiment [3] of 2.

Molecule “wild-type YibK from Pseudomonas aeruginosa in its linear form (enzyme)” showed a stoichiometry N in experiment [4] of 2.

(Values after publication PMC8182377, “Tying up the Loose Ends: A Mathematically Knotted Protein” (Frontiers in Chemistry, 2021).)
